Columns and labels:
Assay in all cases: IEDB peptide-MHC binding, purified MHC/competitive/radioactivity; ≥ and ≤ were set here for values at or beyond the usual limits of such assays
HLA-A*02:06 = target: HLA-A*02:06
HLA-A*02:02 = target: HLA-A*02:02
HLA-A*68:02 = target: HLA-A*68:02
HLA-A*02:03 = target: HLA-A*02:03
HLA-A*02:01 = target: HLA-A*02:01
[1] = source organism: Vaccinia virus WR
[2] = source organism: Hepacivirus hominis
[3] = source organism: Influenza A virus
[4] = source organism: Mammarenavirus lassaense

Row | Sequence | IC50 (HLA-A*02:06; [1]) [nM] | IC50 (HLA-A*02:02; [1]) [nM] | IC50 (HLA-A*68:02; [1]) [nM] | IC50 (HLA-A*02:03; [1]) [nM] | IC50 (HLA-A*02:01; [1]) [nM] | also measured
1 | ILASFSAST |  |  |  |  |  | IC50 (HLA-A*02:06; source organism: SARS-CoV1): 457 nM; IC50 (HLA-A*02:02; source organism: SARS-CoV1): 1.6 nM; IC50 (HLA-A*68:02; source organism: SARS-CoV1): 1220 nM; IC50 (HLA-A*02:03; source organism: SARS-CoV1): 5.3 nM; IC50 (HLA-A*02:01; source organism: SARS-CoV1): 16 nM
2 | SAFNDDGIYI | 41 | 35 | 6.6 | 68 | 35 | 
3 | YASALVLLI |  |  |  |  |  | IC50 (HLA-A*02:06; source organism: SARS-CoV1): 8.7 nM; IC50 (HLA-A*02:02; source organism: SARS-CoV1): 3.2 nM; IC50 (HLA-A*68:02; source organism: SARS-CoV1): 10 nM; IC50 (HLA-A*02:03; source organism: SARS-CoV1): 4.9 nM; IC50 (HLA-A*02:01; source organism: SARS-CoV1): 13 nM
4 | VMYAFTTPLI | 12 | 0.72 | 132 | 4.8 | 3.1 | 
5 | SMMSFSAAL |  |  |  |  |  | IC50 (HLA-A*02:06; [2]): 106 nM; IC50 (HLA-A*02:02; [2]): 5.1 nM; IC50 (HLA-A*68:02; [2]): 493 nM; IC50 (HLA-A*02:03; [2]): 15 nM; IC50 (HLA-A*02:01; [2]): 13 nM
6 | QMLSVVGFLV |  |  |  |  |  | IC50 (HLA-A*02:06; source organism: SARS-CoV1): 14 nM; IC50 (HLA-A*02:02; source organism: SARS-CoV1): 1.2 nM; IC50 (HLA-A*68:02; source organism: SARS-CoV1): 206 nM; IC50 (HLA-A*02:03; source organism: SARS-CoV1): 6 nM; IC50 (HLA-A*02:01; source organism: SARS-CoV1): 7.5 nM
7 | VIADYNYKL |  |  |  |  |  | IC50 (HLA-A*02:06; source organism: SARS-CoV1): 69 nM; IC50 (HLA-A*02:02; source organism: SARS-CoV1): 0.48 nM; IC50 (HLA-A*68:02; source organism: SARS-CoV1): 290 nM; IC50 (HLA-A*02:03; source organism: SARS-CoV1): 115 nM; IC50 (HLA-A*02:01; source organism: SARS-CoV1): 24 nM
8 | MIIGEPIIVA | 124 | 42 | 280 | 111 | 44 | 
9 | IVYGRSNAIL | 424 | 92 | 642 | 33 | 724 | 
10 | IMSIGFEARI | 1600 | 703 | 61 | 1500 | 1590 | 
11 | ALAEHISDSI | 163 | 0.2 | 272 | 0.34 | 8.7 | 
12 | FVVFLLVTL |  |  |  |  |  | IC50 (HLA-A*02:06; source organism: SARS-CoV1): 38 nM; IC50 (HLA-A*02:02; source organism: SARS-CoV1): 217 nM; IC50 (HLA-A*68:02; source organism: SARS-CoV1): 120 nM; IC50 (HLA-A*02:03; source organism: SARS-CoV1): 1640 nM; IC50 (HLA-A*02:01; source organism: SARS-CoV1): 839 nM
13 | SLMAFTASI |  |  |  |  |  | IC50 (HLA-A*02:06; [2]): 743 nM; IC50 (HLA-A*02:02; [2]): 19 nM; IC50 (HLA-A*68:02; [2]): 284 nM; IC50 (HLA-A*02:03; [2]): 40 nM; IC50 (HLA-A*02:01; [2]): 106 nM
14 | FVATFRDML | 487 | 2350 | 12 | 206 | 2260 | 
15 | LVASSGTLEFI |  |  |  |  |  | IC50 (HLA-A*02:06; [3]): 305 nM; IC50 (HLA-A*02:02; [3]): 153 nM; IC50 (HLA-A*68:02; [3]): 199 nM; IC50 (HLA-A*02:03; [3]): 697 nM; IC50 (HLA-A*02:01; [3]): 3730 nM
16 | LLIAITAFT |  |  |  |  |  | IC50 (HLA-A*02:06; [2]): 461 nM; IC50 (HLA-A*02:02; [2]): 37 nM; IC50 (HLA-A*68:02; [2]): 1050 nM; IC50 (HLA-A*02:03; [2]): 12 nM; IC50 (HLA-A*02:01; [2]): 174 nM
17 | HLMSDNPKA | 523 | 57 | 1100 | 279 | 45 | 
18 | LIVAALVFL |  |  |  |  |  | IC50 (HLA-A*02:06; source organism: SARS-CoV1): 11 nM; IC50 (HLA-A*02:02; source organism: SARS-CoV1): 9.4 nM; IC50 (HLA-A*68:02; source organism: SARS-CoV1): 302 nM; IC50 (HLA-A*02:03; source organism: SARS-CoV1): 136 nM; IC50 (HLA-A*02:01; source organism: SARS-CoV1): 18 nM
19 | MMNITRLEVI | 134 | 85 | 428 | 26 | 144 | 
20 | ILQMREIIT | 1230 | 4100 | 1160 | 1340 | 380 | 
21 | KIMEIVSHL | 30 | 79 | 1070 | 10 | 76 | 
22 | MVLMTHFFSV |  |  |  |  |  | IC50 (HLA-A*02:06; [2]): 15 nM; IC50 (HLA-A*02:02; [2]): 808 nM; IC50 (HLA-A*68:02; [2]): 13 nM; IC50 (HLA-A*02:03; [2]): 174 nM; IC50 (HLA-A*02:01; [2]): 146 nM
23 | TMADLVYAL |  |  |  |  |  | IC50 (HLA-A*02:06; source organism: SARS-CoV1): 47 nM; IC50 (HLA-A*02:02; source organism: SARS-CoV1): 0.18 nM; IC50 (HLA-A*68:02; source organism: SARS-CoV1): 20 nM; IC50 (HLA-A*02:03; source organism: SARS-CoV1): 16 nM; IC50 (HLA-A*02:01; source organism: SARS-CoV1): 6.5 nM
24 | IAGGVCYYL | 1410 | 53 | 394 | 1680 | 1930 | 
25 | LTTVFIKYV | 130 | 3640 | 330 | 676 | 1060 | 
26 | IIMAINVFT | 10 | 39 | 84 | 180 | 27 | 
27 | ALKAYFTAKI | 2780 | 194 | 4110 | 77 | 1600 | 

Row | Sequence | IC50 (HLA-A*02:06; [1]) [nM] | IC50 (HLA-A*02:02; [1]) [nM] | IC50 (HLA-A*68:02; [1]) [nM] | IC50 (HLA-A*02:03; [1]) [nM] | IC50 (HLA-A*02:01; [1]) [nM] | also measured
28 | LLFQLCTFT |  |  |  |  |  | IC50 (HLA-A*02:06; source organism: SARS-CoV1): 11 nM; IC50 (HLA-A*02:02; source organism: SARS-CoV1): 22 nM; IC50 (HLA-A*68:02; source organism: SARS-CoV1): 855 nM; IC50 (HLA-A*02:03; source organism: SARS-CoV1): 3.8 nM; IC50 (HLA-A*02:01; source organism: SARS-CoV1): 833 nM
29 | FVFTLTVPS |  |  |  |  |  | IC50 (HLA-A*02:06; [3]): 18 nM; IC50 (HLA-A*02:02; [3]): 394 nM; IC50 (HLA-A*68:02; [3]): 25 nM; IC50 (HLA-A*02:03; [3]): 270 nM; IC50 (HLA-A*02:01; [3]): 514 nM
30 | PLISILMIFI | 2420 | 433 | 915 | 769 | 836 | 
31 | SISGVLWTV |  |  |  |  |  | IC50 (HLA-A*02:06; [2]): 53 nM; IC50 (HLA-A*02:02; [2]): 8.8 nM; IC50 (HLA-A*68:02; [2]): 5.5 nM; IC50 (HLA-A*02:03; [2]): 18 nM; IC50 (HLA-A*02:01; [2]): 11 nM
32 | SIDHCSSFIV | 30 | 172 | 732 | 772 | 23 | 
33 | STYPGNTFV | 0.46 | 11 | 0.24 | 0.19 | 64 | 
34 | NTVGMSIVCI | 1210 | 3020 | 198 | 1540 | 3260 | 
35 | LMGHFSWWTA |  |  |  |  |  | IC50 (HLA-A*02:06; source organism: SARS-CoV1): 97 nM; IC50 (HLA-A*02:02; source organism: SARS-CoV1): 19 nM; IC50 (HLA-A*68:02; source organism: SARS-CoV1): 82 nM; IC50 (HLA-A*02:03; source organism: SARS-CoV1): 135 nM; IC50 (HLA-A*02:01; source organism: SARS-CoV1): 18 nM
36 | YIMRVMANNV | 14 | 23 | 42 | 2 | 49 | 
37 | TLISSDGARV | 1220 | 142 | 542 | 133 | 621 | 
38 | IISLFYTFAI | 146 | 108 | 144 | 44 | 290 | 
39 | FLTGTFVTA | 2.1 | 4.7 | 896 | 0.71 | 15 | 
40 | SQFSYKELYV | 71 | 14 | 634 | 27 | 121 | 
41 | KIYTLIYRQL | 912 | 707 | 4670 | 1030 | 4020 | 
42 | LVMDKNHAI | 103 | 19 | 10 | 770 | 327 | 
43 | LNCLSLLLSV |  |  |  |  |  | IC50 (HLA-A*02:06; [4]): 251 nM; IC50 (HLA-A*02:02; [4]): 124 nM; IC50 (HLA-A*68:02; [4]): 4070 nM; IC50 (HLA-A*02:03; [4]): 230 nM; IC50 (HLA-A*02:01; [4]): 191 nM
44 | LLTDTIESA | 5.9 | 17 | 1240 | 11 | 25 | 
45 | TLLGLILFVL | 672 | 169 | 720 | 796 | 35 | 
46 | ITMTTVYHI |  |  |  |  |  | IC50 (HLA-A*02:06; source organism: SARS-CoV1): 2.3 nM; IC50 (HLA-A*02:02; source organism: SARS-CoV1): 19 nM; IC50 (HLA-A*68:02; source organism: SARS-CoV1): 6.1 nM; IC50 (HLA-A*02:03; source organism: SARS-CoV1): 7.2 nM; IC50 (HLA-A*02:01; source organism: SARS-CoV1): 8.2 nM
47 | GVCYYLLMHL | 128 | 96 | 80 | 64 | 124 | 
48 | GIFVDTMSI | 1620 | 2880 | 3980 | 936 | 3020 | 
49 | PISDYSAEV | 2800 | 716 | 1390 | 267 | 1050 | 
50 | GLYIPGTSV | 1740 | 111 | 904 | 17 | 75 | 
51 | YIFFASFYYI |  |  |  |  |  | IC50 (HLA-A*02:06; source organism: SARS-CoV1): 0.8 nM; IC50 (HLA-A*02:02; source organism: SARS-CoV1): 0.46 nM; IC50 (HLA-A*68:02; source organism: SARS-CoV1): 2.2 nM; IC50 (HLA-A*02:03; source organism: SARS-CoV1): 60 nM; IC50 (HLA-A*02:01; source organism: SARS-CoV1): 15 nM
52 | SIYIAVANCV | 1000 | 534 | 306 | 63 | 1460 | 
53 | KLLYAAEMV | 18 | 58 | 2810 | 54 | 48 | 

Reference: the Immune Epitope Database (IEDB)
